Assay results published in PMC3887004.

Molecular target: F-actin (actin from rabbit skeletal muscle) (rabbit) (UniProt P68135)

run length λ of Qdot-labelled myosin moving along immobilised actin filaments (stepping assay): 2.9 µm
Substance: Myo IX headΔext (motor domain lacking the N-terminal extension) (domain or fragment)
